According to patent US20180155451A1 (published 2018):

T1: FcγRIIb extracellular domain with C-terminal His tag (human, UniProt P31994 43-217)
T1 construct: extracellular domain; also called 2b; FcgRIIb; not shown: His tag at the C terminus
T1 sequence (looked up): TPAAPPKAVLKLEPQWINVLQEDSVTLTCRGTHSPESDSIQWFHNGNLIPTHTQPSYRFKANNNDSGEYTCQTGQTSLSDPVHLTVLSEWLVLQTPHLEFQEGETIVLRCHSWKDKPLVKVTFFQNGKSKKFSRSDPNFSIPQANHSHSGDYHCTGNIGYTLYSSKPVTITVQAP

B1: GpH7-A5/GpH7-B3 variant L328_20W/GpL16-k0 (antibody, human IgG1, kappa)
heavy 1: not shown
heavy 2: not shown
light: DIVMTQSPLSLPVTPGEPASISCQASESLVHSNRNTYLHWYLQKPGQSPQLLIYKVSNRFSGVPDRFSGSGSGTDFTLKISRVEAEDVGVYYCSQNTHVPPTFGQGTKVEIERTVAAPSVFIFPPSDEQLKSGTASVVCLLNNFYPREAKVQWKVDNALQSGNSQESVTEQDSKDSTYSLSSTLTLSKADYEKHKVYACEVTHQGLSSPVTKSFNRGEC
notes: He Ab: mutation in the GpH7-B3 H chain only; also called He Ab
B2: GpH7-A5/GpH7-B3 variant P331_06M/GpL16-k0 (antibody, human IgG1, kappa)
heavy 1: not shown
heavy 2: not shown
light: B1 light
notes: as for B1
B3: GpH7-A5/GpH7-B3 variant P331_15Y/GpL16-k0 (antibody, human IgG1, kappa)
heavy 1: not shown
heavy 2: not shown
light: B1 light
notes: as for B1
B4: GpH7-A5/GpH7-B3 variant V266_14T/GpL16-k0 (antibody, human IgG1, kappa)
heavy 1: not shown
heavy 2: not shown
light: B1 light
notes: as for B1
B5: GpH7-A5/GpH7-B3 variant S267_08L/GpL16-k0 (antibody, human IgG1, kappa)
heavy 1: not shown
heavy 2: not shown
light: B1 light
notes: as for B1
B6: GpH7-A5/GpH7-B3 variant T335_04F/GpL16-k0 (antibody, human IgG1, kappa)
heavy 1: not shown
heavy 2: not shown
light: B1 light
notes: as for B1
B7: GpH7-A5/GpH7-B3 variant T335_18N/GpL16-k0 (antibody, human IgG1, kappa)
heavy 1: not shown
heavy 2: not shown
light: B1 light
notes: as for B1
B8: GpH7-A5/GpH7-B3 variant V266_08L/GpL16-k0 (antibody, human IgG1, kappa)
heavy 1: not shown
heavy 2: not shown
light: B1 light
notes: as for B1
B9: GpH7-A5/GpH7-B3 variant S337_08L/GpL16-k0 (antibody, human IgG1, kappa)
heavy 1: not shown
heavy 2: not shown
light: B1 light
notes: as for B1
B10: GpH7-A5/GpH7-B3 variant S267_01G/GpL16-k0 (antibody, human IgG1, kappa)
heavy 1: not shown
heavy 2: not shown
light: B1 light
notes: as for B1
B11: GpH7-A5/GpH7-B3 variant S337_07I/GpL16-k0 (antibody, human IgG1, kappa)
heavy 1: not shown
heavy 2: not shown
light: B1 light
notes: as for B1
B12: GpH7-A5/GpH7-B3 variant P331_03V/GpL16-k0 (antibody, human IgG1, kappa)
heavy 1: not shown
heavy 2: not shown
light: B1 light
notes: as for B1
B13: GpH7-A5/GpH7-B3 variant V266_07I/GpL16-k0 (antibody, human IgG1, kappa)
heavy 1: not shown
heavy 2: not shown
light: B1 light
notes: as for B1
B14: GpH7-A5/GpH7-B3 variant N325_09D/GpL16-k0 (antibody, human IgG1, kappa)
heavy 1: not shown
heavy 2: not shown
light: B1 light
notes: as for B1
B15: GpH7-A5/GpH7-B3 variant V266_09D/GpL16-k0 (antibody, human IgG1, kappa)
heavy 1: not shown
heavy 2: not shown
light: B1 light
notes: as for B1
B16: GpH7-A5/GpH7-B3 variant V266_19Q/GpL16-k0 (antibody, human IgG1, kappa)
heavy 1: not shown
heavy 2: not shown
light: B1 light
notes: as for B1
B17: GpH7-A5/GpH7-B3 variant N325_08L/GpL16-k0 (antibody, human IgG1, kappa)
heavy 1: not shown
heavy 2: not shown
light: B1 light
notes: as for B1
B18: GpH7-A5/GpH7-B3 variant V266_18N/GpL16-k0 (antibody, human IgG1, kappa)
heavy 1: not shown
heavy 2: not shown
light: B1 light
notes: as for B1
B19: GpH7-A5/GpH7-B3 variant V266_06M/GpL16-k0 (antibody, human IgG1, kappa)
heavy 1: not shown
heavy 2: not shown
light: B1 light
notes: as for B1
B20: GpH7-A5/GpH7-B3 variant P331_04F/GpL16-k0 (antibody, human IgG1, kappa)
heavy 1: not shown
heavy 2: not shown
light: B1 light
notes: as for B1
B21: GpH7-A5/GpH7-B3 variant S267_02A/GpL16-k0 (antibody, human IgG1, kappa)
heavy 1: not shown
heavy 2: not shown
light: B1 light
notes: as for B1
B22: GpH7-A5/GpH7-B3 variant V266_13S/GpL16-k0 (antibody, human IgG1, kappa)
heavy 1: not shown
heavy 2: not shown
light: B1 light
notes: as for B1

Target: T2, FcγRIIIa extracellular domain with C-terminal His tag (human, UniProt P08637 17-208)
T2 construct: extracellular domain; also called 3a; FcgRIIIa; not shown: His tag at the C terminus
Assay: SPR (Biacore), relative binding, GpH7-A5/GpH7-B3/GpL16-k0 = 100
Method: (§1) Analysis of interaction between objective antibody and the FcγR was carried out using Biacore T100 (GE Healthcare). HBS-EP+ (GE Healthcare) was used as the running buffer, and the measurement temperature was set to 25° C. Chips produced by immobilizing the antigen peptide by the amine coupling method to a Series S Sencor Chip CM5 (GE Healthcare), or alternatively, chips produced by allowing preliminarily biotinylated antigen peptides to interact with and immobilize onto a Series S Sensor Chip SA (certified) (GE Healthcare) were used. Antibodies of interest were captured onto an antigen peptide-immobilized chip, and allowed to interact to each FcγR diluted with running buffer. To regenerate and repeatedly use the chip, the antibodies captured on the chip were washed off by reacting 10 mM glycine-HCl, pH 1.5.
(§2) The FcγR-binding activity of each antibody was assessed primarily using as an indicator the FcγR-binding activity and dissociation constant for FcγR.

T2 sequence (P08637 17-208): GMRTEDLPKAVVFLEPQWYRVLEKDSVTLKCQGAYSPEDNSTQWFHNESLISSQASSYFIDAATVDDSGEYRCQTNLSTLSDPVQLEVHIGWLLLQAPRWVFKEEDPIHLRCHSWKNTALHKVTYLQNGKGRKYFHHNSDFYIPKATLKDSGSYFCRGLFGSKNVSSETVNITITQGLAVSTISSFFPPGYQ

Compared with B1, B2 is higher in He/Con_3a: 37.4 % of control for the first, 74.8 % of control for the second.

First: B3
Second: B4
The He/Con_3a of the first is higher: 81.9 % of control for the first, 39.4 % of control for the second.

Going from B5 to B6, the He/Con_3a rises from 19.5 % of control to 96 % of control.

Going from B7 to B8, the He/Con_3a rises from 98.8 % of control to 118 % of control.

Compared with B9, B10 is lower in He/Con_3a: 96.9 % of control for the first, 53.8 % of control for the second.

Compared with B11, B12 is lower in He/Con_3a: 94.8 % of control for the first, 73.2 % of control for the second.

Compared with B13, B14 is lower in He/Con_3a: 114 % of control for the first, 48 % of control for the second.

Going from B15 to B16, the He/Con_3a rises from 2.7 % of control to 34.7 % of control.

First: B17
Second: B18
The He/Con_3a of the first is higher: 33.3 % of control for the first, 30.4 % of control for the second.

First: B19
Second: B20
The He/Con_3a of the first is higher: 85.8 % of control for the first, 77.3 % of control for the second.

Compared with B21, B22 is lower in He/Con_3a: 150 % of control for the first, 28.1 % of control for the second.

Target: T1, FcγRIIb extracellular domain with …
Assay: as above
Method: as §1, §2

First: B1
Second: B2
The He/Con_2b of the first is higher: 235 % of control for the first, 102 % of control for the second.

Compared with B3, B4 is lower in He/Con_2b: 114 % of control for the first, 82.3 % of control for the second.

First: B5
Second: B6
The He/Con_2b of the first is higher: 109 % of control for the first, 103 % of control for the second.

Compared with B7, B8 is higher in He/Con_2b: 102 % of control for the first, 236 % of control for the second.

First: B9
Second: B10
The He/Con_2b of the first is lower: 100 % of control for the first, 105 % of control for the second.

First: B11
Second: B12
The He/Con_2b of the first is lower: 104 % of control for the first, 119 % of control for the second.

Going from B13 to B14, the He/Con_2b falls from 152 % of control to 124 % of control.

Going from B15 to B16, the He/Con_2b rises from 10.1 % of control to 89.2 % of control.

First: B17
Second: B18
The He/Con_2b of the first is higher: 197 % of control for the first, 69.7 % of control for the second.

Compared with B19, B20 is lower in He/Con_2b: 251 % of control for the first, 110 % of control for the second.

Going from B21 to B22, the He/Con_2b falls from 243 % of control to 54.4 % of control.
